Results as given in patent US20210317456.
pKd: −log10 of the molar value.

Key:
IgA (Homo sapiens) [1] = test: filter; details: Zorbax, SB18, 37 C
[2] = system: IgG1-Fc (Homo sapiens), P01857-1; test: filter; details: n (P) = NapdU; Zorbax, SB18, 37 C
[3] = system: IgG3-Fc (Homo sapiens), P01860-1; test: filter; details: n (P) = NapdU; Zorbax, SB18, 37 C
IgM (Homo sapiens) [4] = test: filter; details: Zorbax, SB18, 37 C
[5] = system: β-FGFR fusion (Fc fusion protein) (Homo sapiens); test: filter; details: Zorbax, SB18, 37 C
[6] = system: IgG1-Kappa (Homo sapiens), P01857-1+P01834; test: pulldown; details: Protein L beads
[7] = system: IgG3-Kappa (Homo sapiens), P01860-1+P01834; test: pulldown; details: Protein L beads
[8] = system: IgG4-Kappa (Homo sapiens), P01861-1+P01834; test: pulldown; details: Protein L beads
[9] = system: Immunoglobulin G (total IgG); test: pulldown
IgD (Homo sapiens) [10] = test: filter; details: Zorbax, SB18, 37 C
[11] = system: Total IgG (monkey) (monkey); test: filter; details: Zorbax, SB18, 37 C
[12] = system: Total IgG (rabbit) (Oryctolagus cuniculus); test: filter; details: Zorbax, SB18, 37 C
[13] = system: Immunoglobulin G (total IgG) (Homo sapiens); test: filter
[14] = system: IgG2-Fc (Homo sapiens), P01859-1; test: filter; details: n (P) = NapdU; Zorbax, SB18, 37 C
[15] = system: IgG4-Fc (Homo sapiens), P01861-1; test: filter; details: n (P) = NapdU; Zorbax, SB18, 37 C
IgA (Homo sapiens) [16] = test: pulldown; details: Zorbax beads, SB18, 37C
IgD (Homo sapiens) [17] = test: pulldown; details: Zorbax beads, SB18, 37C
[18] = system: IgG1 (mouse) (Mus musculus); test: pulldown; details: P = 2NapdU; Protein L beads, SB17; printed as 3E07 (minus sign missing)
[19] = system: IgG1-Fc (Homo sapiens), P01857-1; test: pulldown; details: 37C, bead partitioning
[20] = system: IgG2-Fc (Homo sapiens), P01859-1; test: pulldown; details: 37C, bead partitioning
[21] = system: IgG3-Fc (Homo sapiens), P01860-1; test: pulldown; details: 37C, bead partitioning
[22] = system: IgG4-Fc (Homo sapiens), P01861-1; test: pulldown; details: 37C, bead partitioning
IgM (Homo sapiens) [23] = test: pulldown; details: Zorbax beads, SB18, 37C
IgM (cow) (Bos taurus) = test: pulldown; details: P = 2NapdU; Zorbax beads, SB18, 37C
[24] = system: Total IgG (cow) (Bos taurus); test: pulldown; details: P = 2NapdU; Zorbax beads, SB18, 37C
[25] = system: Total IgG (goat) (Capra hircus); test: pulldown; details: P = 2NapdU; Zorbax beads, SB18, 37C
[26] = system: Total IgG (monkey) (monkey); test: pulldown; details: Zorbax beads, SB18, 37C
[27] = system: Total IgG (mouse) (Mus musculus); test: pulldown; details: P = 2NapdU; Zorbax beads, SB18, 37C
[28] = system: Total IgG (rabbit) (Oryctolagus cuniculus); test: pulldown; details: Zorbax beads, SB18, 37C
[29] = system: Total IgG (sheep) (Ovis aries); test: pulldown; details: P = 2NapdU; Zorbax beads, SB18, 37C
[30] = system: β-FGFR fusion (Fc fusion protein) (Homo sapiens); test: pulldown; details: 37C, bead partitioning
[31] = n (P) = NapdU, considered no binding
[32] = n (P) = NapdU, SB18, 5 mM MgCl2, 37 C
[33] = n (P) = NapdU, SB18, 5 mM MgCl2, 37 C, sequence identical to _21 to _25
[34] = n (P) = 2NapdU, SB18, 5 mM MgCl2, 37 C

Sequence of IgG3-Fc (Homo sapiens), P01860-1 (P01860 other isoform, or with tags, fused parts or gaps): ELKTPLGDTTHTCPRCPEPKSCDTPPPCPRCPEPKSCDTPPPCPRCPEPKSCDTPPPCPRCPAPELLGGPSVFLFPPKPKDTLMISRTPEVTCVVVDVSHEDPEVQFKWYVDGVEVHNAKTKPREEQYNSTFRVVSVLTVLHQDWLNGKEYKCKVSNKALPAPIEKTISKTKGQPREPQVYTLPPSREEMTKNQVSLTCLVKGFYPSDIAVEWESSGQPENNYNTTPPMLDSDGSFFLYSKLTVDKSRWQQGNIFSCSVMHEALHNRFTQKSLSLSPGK
Sequence of IgG2-Fc (Homo sapiens), P01859-1 (P01859 other isoform, or with tags, fused parts or gaps): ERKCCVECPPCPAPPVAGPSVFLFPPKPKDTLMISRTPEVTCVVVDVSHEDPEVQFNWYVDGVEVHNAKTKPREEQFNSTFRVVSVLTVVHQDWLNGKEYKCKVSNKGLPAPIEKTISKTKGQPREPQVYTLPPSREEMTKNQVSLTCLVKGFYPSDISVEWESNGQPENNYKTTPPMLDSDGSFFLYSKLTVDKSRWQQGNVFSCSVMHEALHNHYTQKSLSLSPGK
Sequence of IgG4-Fc (Homo sapiens), P01861-1 (P01861 other isoform, or with tags, fused parts or gaps): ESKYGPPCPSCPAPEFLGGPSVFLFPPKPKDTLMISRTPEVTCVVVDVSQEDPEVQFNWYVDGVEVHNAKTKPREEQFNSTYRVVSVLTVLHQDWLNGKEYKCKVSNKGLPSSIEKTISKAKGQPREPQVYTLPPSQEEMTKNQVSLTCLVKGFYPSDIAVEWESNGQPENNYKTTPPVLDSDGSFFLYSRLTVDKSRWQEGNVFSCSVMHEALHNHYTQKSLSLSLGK
Sequence of IgG3-Kappa (Homo sapiens), P01860-1+P01834 (P01860 other isoform, or with tags, fused parts or gaps, chain 1 of 2, other chains not shown): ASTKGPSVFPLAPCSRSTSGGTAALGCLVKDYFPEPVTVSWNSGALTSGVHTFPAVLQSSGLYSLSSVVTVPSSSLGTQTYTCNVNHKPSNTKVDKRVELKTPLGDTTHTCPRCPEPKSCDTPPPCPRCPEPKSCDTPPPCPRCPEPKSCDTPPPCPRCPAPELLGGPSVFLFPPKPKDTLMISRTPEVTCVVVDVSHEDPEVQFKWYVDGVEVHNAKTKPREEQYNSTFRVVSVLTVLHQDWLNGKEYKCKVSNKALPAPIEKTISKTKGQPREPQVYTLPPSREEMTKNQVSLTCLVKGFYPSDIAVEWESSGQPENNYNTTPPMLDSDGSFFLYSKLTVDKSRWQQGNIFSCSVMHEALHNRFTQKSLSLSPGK
Sequence of IgG4-Kappa (Homo sapiens), P01861-1+P01834 (P01861 other isoform, or with tags, fused parts or gaps, chain 1 of 2, other chains not shown): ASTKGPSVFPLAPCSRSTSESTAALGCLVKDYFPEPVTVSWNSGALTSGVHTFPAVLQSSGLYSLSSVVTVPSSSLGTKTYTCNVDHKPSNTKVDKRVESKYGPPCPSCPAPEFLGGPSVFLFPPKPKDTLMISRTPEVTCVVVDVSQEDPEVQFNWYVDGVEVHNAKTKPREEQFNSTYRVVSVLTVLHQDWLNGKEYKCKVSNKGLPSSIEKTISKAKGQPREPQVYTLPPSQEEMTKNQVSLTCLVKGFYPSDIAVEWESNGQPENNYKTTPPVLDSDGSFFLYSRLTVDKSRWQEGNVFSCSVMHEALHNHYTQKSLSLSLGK

Sequence: CCTCCATACGGTACGATTTTCAGTTGGATCCAGTACCTGGCTGGAGAGAA [5406-56_3]
- pKd (IgA (Homo sapiens) [1]; n (P) = NapdU): 6.70
- pKd [2]: 8.70
- pKd [3]: 6.40
- pKd (IgM (Homo sapiens) [4]; n (P) = NapdU): 7.00
- pKd ([5]; n (P) = NapdU): 8.52
- pKd ([6]; n (P) = NapdU, SB17, 37 C): 8.70
- pKd ([7]; n (P) = NapdU, SB17, 37 C): 7.10
- pKd ([8]; n (P) = NapdU, SB17, 37 C): 7.70
- pKd ([9]; P = NapdU at all n positions, SB18, 5 mM MgCl2, 37C, bead partitioning, 4.54 nM in Table 2): 8.50

Sequence: CGGCACTCCACATCCAAGACTGCGGTTACCTTGTAGGCGATTATGGGCAG [5334-8_3]
- pKd (IgA (Homo sapiens) [1]; n (P) = 2NapdU): 6.70
- pKd (IgD (Homo sapiens) [10]; n (P) = 2NapdU): 6.22
- pKd (IgM (Homo sapiens) [4]; n (P) = 2NapdU): 7.00
- pKd ([11]; n (P) = 2NapdU): 7.70
- pKd ([12]; n (P) = 2NapdU): 7.70
- pKd ([5]; n (P) = 2NapdU): 8.05
- pKd ([6]; n (P) = 2NapdU, SB17, 37 C): 7.40
- pKd ([7]; n (P) = 2NapdU, SB17, 37 C): 8.15
- pKd ([8]; n (P) = 2NapdU, SB17, 37 C): 8.00
- pKd ([9]; P = 2NapdU at all n positions, SB18, 37C, 12.2 nM in Table 4): 8.12

Sequence: GCCTGCACGATGGCGAACTCCCTGAATGCTCTTG [14125-144_19]
- pKd [13, 31]: < 6.00

Sequence: GCCTGCACGATGGCGAACTCCCTGAATGCTCTTGTCTTAA [14125-144_16]
- pKd [13, 32]: 8.05

Sequence: GCCTGCACGATGGCGAACTCCCTGAATGCTCTTGTCTTAAGTCC [14125-144_14]
- pKd [13, 32]: 7.80

Sequence: GCCTGCACGATGGCGAACTCCCTGAATGCTCTTGTCTTAAGTCCCC [14125-144_13]
- pKd [13, 32]: 7.84

Sequence: GCCTGCACGATGGCGAACTCCCTGAATGCTCTTGTCTTAAGTCCCCAA [14125-144_12]
- pKd [13, 32]: 7.76

Sequence: GCCTGCACGATGGCGAACTCCCTGAATGCTCTTGTCTTAAGTCCCCAACA [14125-144_3]
- pKd (IgA (Homo sapiens) [1]; n (P) = NapdU): 7.52
- pKd (IgD (Homo sapiens) [10]; n (P) = NapdU): 6.22
- pKd [2]: 7.40
- pKd [14]: 8.10
- pKd [3]: 8.30
- pKd [15]: 7.70
- pKd (IgM (Homo sapiens) [4]; n (P) = NapdU): 7.40
- pKd ([11]; n (P) = NapdU): 7.10
- pKd ([12]; n (P) = NapdU): 7.40
- pKd ([5]; n (P) = NapdU): 8.52
- pKd ([6]; n (P) = NapdU, SB17, 37 C): 7.70
- pKd ([7]; n (P) = NapdU, SB17, 37 C): 8.40
- pKd ([8]; n (P) = NapdU, SB17, 37 C): 8.30
- pKd ([9]; P = NapdU at all n positions, SB18, 37C, 18.8 nM in Table 6): 7.79

Sequence: GCGGTTACCTTGTAGGCGATTATGGGCA [5334-8_34]
- pKd (IgA (Homo sapiens) [16]; P = 2NapdU): 7.40
- pKd (IgD (Homo sapiens) [17]; P = 2NapdU): 7.22
- pKd [18]: 6.52
- pKd ([19]; P = 2NapdU): 8.30
- pKd ([6]; P = 2NapdU, SB17, 37C): 7.70
- pKd ([20]; P = 2NapdU): 8.70
- pKd ([21]; P = 2NapdU): 9.00
- pKd ([7]; P = 2NapdU, SB17, 37C): 8.40
- pKd ([22]; P = 2NapdU): 8.70
- pKd ([8]; P = 2NapdU, SB17, 37C): 8.52
- pKd (IgM (Homo sapiens) [23]; P = 2NapdU): 9.22
- pKd (IgM (cow) (Bos taurus)): 7.40
- pKd ([9]; P = 2NapdU, SB18, 37C, 8E-09 M in Table 7): 8.01
- pKd [24]: 6.30
- pKd [25]: 6.22
- pKd ([26]; P = 2NapdU): 8.22
- pKd [27]: 6.70
- pKd ([28]; P = 2NapdU): 8.05
- pKd [29]: 6.30
- pKd ([30]; P = 2NapdU): 8.70

Sequence: GGCGAACTCCCTGAATGCTCTTGTC [14125-144_39]
- pKd [13, 31]: < 6.00

Sequence: GGCGAACTCCCTGAATGCTCTTGTCT [14125-144_35]
- pKd [13, 31]: < 6.00

Sequence: GGTACGATTTTCAGTTGGATCCAGTAC [5406-56_48]
- pKd (IgA (Homo sapiens) [16]; P = NapdU): 6.70
- pKd (IgD (Homo sapiens) [17]; P = NapdU): 6.30
- pKd ([19]; P = NapdU): 8.52
- pKd ([6]; P = NapdU, SB17, 37C): 8.70
- pKd ([21]; P = NapdU): 7.15
- pKd ([7]; P = NapdU, SB17, 37C): 7.00
- pKd ([22]; P = NapdU): 7.52
- pKd ([8]; P = NapdU, SB17, 37C): 7.30
- pKd (IgM (Homo sapiens) [23]; P = NapdU): 7.15
- pKd ([9]; P = NapdU, SB18, 37C, 6E-09 M in Table 7): 8.24
- pKd ([26]; P = NapdU): 7.00
- pKd ([30]; P = NapdU): 8.40

Sequence: GGTACGATTTTCAGTTGGATCCAGTACC [5406-56_42]
- pKd [13, 32]: 8.30

Sequence: GGTACGATTTTCAGTTGGATCCAGTACCT [5406-56_36]
- pKd [13, 32]: 8.46

Sequence: GGTACGATTTTCAGTTGGATCCAGTACCTG [5406-56_30]
- pKd [13, 32]: 8.49

Sequence: GGTACGATTTTCAGTTGGATCCAGTACCTGG [5406-56_24]
- pKd [13, 33]: 8.29

Sequence: GTACGATTTTCAGTTGGATCCAGTACC [5406-56_43]
- pKd [13, 32]: 7.96

Sequence: GTACGATTTTCAGTTGGATCCAGTACCTGG [5406-56_25]
- pKd [13, 33]: 7.66

Sequence: TACGGTACGATTTTCAGTTGGATCCAGTAC [5406-56_45]
- pKd [13, 32]: 7.66

Sequence: TACGGTACGATTTTCAGTTGGATCCAGTACC [5406-56_39]
- pKd [13, 32]: 8.17

Sequence: TACGGTACGATTTTCAGTTGGATCCAGTACCT [5406-56_33]
- pKd [13, 32]: 8.27

Sequence: TACGGTACGATTTTCAGTTGGATCCAGTACCTG [5406-56_27]
- pKd [13, 32]: 8.25

Sequence: TCCAAGACTGCGGTTACCTTGTAGGCGATTATGGGCAG [5334-8_9]
- pKd [13, 34]: 8.08

Sequence: TGCGGTTACCTTGTAGGCGATTATGGGCAG [5334-8_24]
- pKd [13, 34]: 8.26

Sequence: TGGCGAACTCCCTGAATGCTCTTGTCTT [14125-144_30]
- pKd (IgA (Homo sapiens) [16]; P = NapdU): 7.00
- pKd (IgD (Homo sapiens) [17]; P = NapdU): 7.10
- pKd ([19]; P = NapdU): 7.52
- pKd ([6]; P = NapdU, SB17, 37C): 7.40
- pKd ([20]; P = NapdU): 8.15
- pKd ([21]; P = NapdU): 8.70
- pKd ([7]; P = NapdU, SB17, 37C): 8.10
- pKd ([22]; P = NapdU): 7.52
- pKd ([8]; P = NapdU, SB17, 37C): 8.40
- pKd (IgM (Homo sapiens) [23]; P = NapdU): 8.22
- pKd ([9]; P = NapdU, SB18, 37C, 3E-08 M in Table 7): 8.09
- pKd ([26]; P = NapdU): 7.22
- pKd ([28]; P = NapdU): 7.00
- pKd ([30]; P = NapdU): 8.40
